# Source: US20200199204A1
# Key:
# Experiment in all cases: cell-based or functional assay
# [1] = target: HIV-1 Env of 0260.v5.c36 (HIV-1)
# [2] = target: HIV-1 Env of CNE3 (HIV-1)
# [3] = target: HIV-1 Env of THRO.18 (HIV-1)
# [4] = target: HIV-1 Env of RW020.2 (HIV-1)
# [5] = target: HIV-1 Env of ZM214.15 (HIV-1)
# [6] = target: HIV-1 Env of SC422.8 (HIV-1)
# [7] = target: HIV-1 Env of CAP244.D3 (HIV-1)
# [8] = target: HIV-1 Env of ZM135.10a (HIV-1)
# [9] = target: HIV-1 Env of C1080.c3 (HIV-1)
# [10] = target: HIV-1 Env of MB539.2B7 (HIV-1)
# [11] = target: HIV-1 Env of CAP256.SU (HIV-1)
# [12] = target: HIV-1 Env of REJO.67 (HIV-1)
# [13] = target: HIV-1 Env of CAAN.A2 (HIV-1)
# [14] = target: HIV-1 Env of UG037.8 (HIV-1)
# [15] = target: HIV-1 Env of QH0692.42 (HIV-1)
# [16] = target: HIV-1 Env of TH976.17 (HIV-1)
# [17] = target: HIV-1 Env of BG505.w6m (HIV-1)
# [18] = target: HIV-1 Env of RHPA.7 (HIV-1)
# [19] = target: HIV-1 Env of Q259.d2.17 (HIV-1)
# [20] = target: HIV-1 Env of 191821.E6.1 (HIV-1)
# [21] = target: HIV-1 Env of ZM53.12 (HIV-1)
# [22] = target: HIV-1 Env of 6535.3 (HIV-1)
# [23] = target: HIV-1 Env of CAP210.E8 (HIV-1)
# [24] = target: HIV-1 Env of Q842.d12 (HIV-1)
# [25] = target: HIV-1 Env of ZM233.6 (HIV-1)
# [26] = target: HIV-1 Env of CAP45.G3 (HIV-1)
# [27] = target: HIV-1 Env of DU156.12 (HIV-1)
# [28] = target: HIV-1 Env of 6405.v4.c34 (HIV-1)
# [29] = target: HIV-1 Env of TRJO.58 (HIV-1)
# [30] = target: HIV-1 Env of ZM197.7 (HIV-1)
# [31] = target: HIV-1 Env of DU172.17 (HIV-1)
# [32] = target: HIV-1 Env of CAP256.PI (HIV-1)
# [33] = target: HIV-1 Env of AC10.29 (HIV-1)
# [34] = target: HIV-1 Env of CM244.ec1 (HIV-1)
# [35] = target: HIV-1 Env of WITO.33 (HIV-1)
# [36] = target: HIV-1 Env of KER2018.11 (HIV-1)
# [37] = target: HIV-1 Env of Q168.a2 (HIV-1)
# [38] = target: HIV-1 Env of 96ZM651.02 (HIV-1)
# [39] = target: HIV-1 Env of Q461.e2 (HIV-1)
# [40] = target: HIV-1 Env of DU422.01 (HIV-1)
# [41] = target: HIV-1 Env of ZM249.1 (HIV-1)
# [42] = target: HIV-1 Env of Q769.d22 (HIV-1)
# [43] = target: HIV-1 Env of ZM109.4 (HIV-1)
# [44] = target: HIV-1 Env of 3016.V5.c36 (HIV-1)
# [45] = target: HIV-1 Env of KER2008.12 (HIV-1)
# [46] = target: HIV-1 Env of TRO.11 (HIV-1)
# [47] = target: HIV-1 Env of MB201 (HIV-1)
# [48] = target: HIV-1 Env of PVO.04 (HIV-1)
# [49] = target: HIV-1 Env of Q23.17 (HIV-1)
substance,measurement,setting,value
CAP256-VRC26.20 (antibody),IC50,[1],> 50 µg/mL
same,"IC50 (neutralization, TZM-bl)",[2],> 50 µg/mL
same,IC50,[3],> 50 µg/mL
same,IC50,[4],> 50 µg/mL
same,IC50,[5],> 50 µg/mL
same,IC50,[6],> 50 µg/mL
same,IC50,[7],> 50 µg/mL
same,IC50,[8],> 50 µg/mL
same,IC50,[9],> 50 µg/mL
same,IC50,[10],> 50 µg/mL
same,IC50,[11],> 50 µg/mL
same,IC50,[12],> 50 µg/mL
same,IC50,[13],> 50 µg/mL
same,IC50,[14],> 50 µg/mL
same,IC50,[15],> 50 µg/mL
same,"IC50 (neutralization, TZM-bl)",[16],> 50 µg/mL
same,IC50,[17],> 50 µg/mL
same,IC50,[18],> 50 µg/mL
same,IC50,[19],> 50 µg/mL
same,IC50,[20],> 50 µg/mL
same,IC50,[21],1.87 µg/mL
same,IC50,[22],> 50 µg/mL
same,IC50,[23],> 50 µg/mL
same,IC50,[24],> 50 µg/mL
same,IC50,[25],> 50 µg/mL
same,IC50,[26],> 50 µg/mL
same,IC50,[27],> 50 µg/mL
same,IC50,[28],> 50 µg/mL
same,IC50,[29],> 50 µg/mL
same,IC50,[30],> 50 µg/mL
same,IC50,[31],> 50 µg/mL
same,IC50,[32],> 50 µg/mL
same,IC50,[33],> 50 µg/mL
same,IC50,[34],> 50 µg/mL
same,IC50,[35],> 50 µg/mL
same,IC50,[36],> 50 µg/mL
same,IC50,[37],> 50 µg/mL
same,IC50,[38],> 50 µg/mL
same,IC50,[39],> 50 µg/mL
same,IC50,[40],> 50 µg/mL
same,IC50,[41],> 50 µg/mL
same,IC50,[42],> 50 µg/mL
same,IC50,[43],> 50 µg/mL
same,IC50,[44],> 50 µg/mL
same,IC50,[45],> 50 µg/mL
same,IC50,[46],> 50 µg/mL
same,IC50,[47],> 50 µg/mL
same,IC50,[48],> 50 µg/mL
same,IC50,[49],> 50 µg/mL
CAP256-VRC26.14 (antibody),IC50,[1],> 50 µg/mL
same,IC50,[2],> 50 µg/mL
same,IC50,[3],> 50 µg/mL
same,IC50,[4],> 50 µg/mL
same,IC50,[5],> 50 µg/mL
same,IC50,[6],> 50 µg/mL
same,IC50,[7],> 50 µg/mL
same,IC50,[8],> 50 µg/mL
same,IC50,[9],0.779 µg/mL
same,IC50,[10],> 50 µg/mL
same,IC50,[11],0.004 µg/mL
same,IC50,[12],> 50 µg/mL
same,IC50,[13],> 50 µg/mL
same,IC50,[14],> 50 µg/mL
same,IC50,[15],> 50 µg/mL
same,IC50,[16],> 50 µg/mL
same,IC50,[17],0.75 µg/mL
same,IC50,[18],> 50 µg/mL
same,IC50,[19],2.13 µg/mL
same,IC50,[20],3.36 µg/mL
same,IC50,[21],0.006 µg/mL
same,IC50,[22],> 50 µg/mL
same,IC50,[23],0.012 µg/mL
same,IC50,[24],> 50 µg/mL
same,IC50,[25],0.028 µg/mL
same,IC50,[26],> 50 µg/mL
same,IC50,[27],> 50 µg/mL
same,IC50,[28],> 50 µg/mL
same,IC50,[29],> 50 µg/mL
same,IC50,[30],4.96 µg/mL
same,IC50,[31],> 50 µg/mL
same,IC50,[32],> 50 µg/mL
same,IC50,[33],> 50 µg/mL
same,IC50,[34],6.16 µg/mL
same,IC50,[35],> 50 µg/mL
same,IC50,[36],0.03 µg/mL
same,IC50,[37],> 50 µg/mL
same,IC50,[38],> 50 µg/mL
same,IC50,[39],> 50 µg/mL
same,IC50,[40],49 µg/mL
same,IC50,[41],> 50 µg/mL
same,IC50,[42],> 50 µg/mL
same,IC50,[43],> 50 µg/mL
same,IC50,[44],0.012 µg/mL
same,IC50,[45],> 50 µg/mL
same,IC50,[46],> 50 µg/mL
same,IC50,[47],> 50 µg/mL
same,IC50,[48],> 50 µg/mL
same,IC50,[49],> 50 µg/mL
